Test system: peptide library, one residue held at a place counted from the Y acceptor
Test: relative phosphorylation of the sub-library (ratio to the mean residue at this position); higher = residue favoured
Outline: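 Purified recombinant kinases were given 50 μM ATP with γ-32P-ATP and biotinylated Tyr-centred peptide library mixtures for 90 min in 384-well plates. Peptides bound to streptavidin membranes were rinsed and quantified by phosphorimaging, and intensities were normalized per position by the sum of the 18 randomized residues (16 with the Ser/Thr-free library) and multiplied by that number. The reported values are phosphorylation relative to the mean randomized residue.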

Chain of DDR2, construct: aa522-end, human (Q16832 522-855, looked up): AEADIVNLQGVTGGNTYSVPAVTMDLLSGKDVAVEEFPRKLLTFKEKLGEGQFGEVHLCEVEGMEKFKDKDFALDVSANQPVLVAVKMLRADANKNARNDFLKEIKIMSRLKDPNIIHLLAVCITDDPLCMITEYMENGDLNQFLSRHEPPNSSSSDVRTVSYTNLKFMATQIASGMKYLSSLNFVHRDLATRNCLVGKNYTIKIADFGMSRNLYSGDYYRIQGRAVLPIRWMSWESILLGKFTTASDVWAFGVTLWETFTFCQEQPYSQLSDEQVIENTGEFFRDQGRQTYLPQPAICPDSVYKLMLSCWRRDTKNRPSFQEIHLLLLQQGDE
Chain of EPHA2, construct: aa561-end, human (P29317 561-976, looked up): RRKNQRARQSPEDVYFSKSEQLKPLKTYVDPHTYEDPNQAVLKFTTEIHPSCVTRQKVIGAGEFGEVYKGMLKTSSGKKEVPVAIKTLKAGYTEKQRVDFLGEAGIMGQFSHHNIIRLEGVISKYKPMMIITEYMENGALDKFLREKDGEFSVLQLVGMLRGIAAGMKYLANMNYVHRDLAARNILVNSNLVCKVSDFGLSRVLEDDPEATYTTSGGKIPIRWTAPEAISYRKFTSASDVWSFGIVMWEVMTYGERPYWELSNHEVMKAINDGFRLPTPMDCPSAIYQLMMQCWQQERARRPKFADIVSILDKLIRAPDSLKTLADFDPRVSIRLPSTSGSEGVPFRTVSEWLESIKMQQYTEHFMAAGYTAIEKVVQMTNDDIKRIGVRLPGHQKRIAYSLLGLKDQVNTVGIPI
Chain of EPHA4, construct: aa610-887, human (P54764 610-887, looked up): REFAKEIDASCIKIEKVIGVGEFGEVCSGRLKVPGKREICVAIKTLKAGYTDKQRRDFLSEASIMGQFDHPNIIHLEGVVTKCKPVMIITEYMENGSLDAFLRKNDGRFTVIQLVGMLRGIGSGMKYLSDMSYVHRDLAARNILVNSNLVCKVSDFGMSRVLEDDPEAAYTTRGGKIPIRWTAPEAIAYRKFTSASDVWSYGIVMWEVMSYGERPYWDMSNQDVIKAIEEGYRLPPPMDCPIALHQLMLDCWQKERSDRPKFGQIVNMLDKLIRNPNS
Chain of EPHA1, construct: aa568-end, human (P21709 568-976, looked up): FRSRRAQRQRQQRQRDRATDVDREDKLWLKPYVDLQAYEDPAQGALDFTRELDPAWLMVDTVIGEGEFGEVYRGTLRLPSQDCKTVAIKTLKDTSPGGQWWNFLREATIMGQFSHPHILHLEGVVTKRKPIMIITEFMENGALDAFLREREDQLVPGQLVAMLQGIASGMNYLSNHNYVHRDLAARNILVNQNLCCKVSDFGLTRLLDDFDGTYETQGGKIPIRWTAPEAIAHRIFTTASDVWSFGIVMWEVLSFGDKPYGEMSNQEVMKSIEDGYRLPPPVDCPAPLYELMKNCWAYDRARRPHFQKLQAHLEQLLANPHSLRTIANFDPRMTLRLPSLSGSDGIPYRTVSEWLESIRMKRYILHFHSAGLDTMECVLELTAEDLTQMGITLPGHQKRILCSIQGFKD

DDR2, construct: aa522-end, human (from UniProt Q16832)
relative phosphorylation
Details	at +1	at +2	at +3	at +4	at +5	at -1	at -2	at -3	at -4	at -5
A fixed	2.33	0.781	0.51	0.457	0.507	1.2	0.969	0.938	0.924	1.1
D fixed	0.221	0.71	0.309	1.13	0.445	1.83	0.707	0.692	0.688	0.848
E fixed	0.206	1.66	0.283	1.36	0.393	0.583	0.635	0.567	0.724	0.771
F fixed	0.905	0.738	1.38	2.06	2.29	0.517	0.358	1.13	0.728	0.723
G fixed	0.361	0.37	0.296	0.372	0.632	0.617	1.19	1.09	1.43	1.38
H fixed	0.894	0.92	0.901	1.63	0.817	1.14	1.58	1.82	1.29	1.17
I fixed	1.13	1.08	3.3	1.09	2.43	0.879	0.316	0.472	0.627	0.548
K fixed	0.899	0.687	0.35	0.56	0.607	0.653	1.85	1.44	1.6	1.42
L fixed	0.602	1.42	1.94	0.851	1.4	0.828	0.449	0.466	0.581	0.702
M fixed	1.12	1.3	2.09	0.824	1.08	0.593	0.597	0.534	0.933	0.787
N fixed	0.502	1.03	0.365	1.05	0.747	2.72	1.66	1.3	0.985	1.01
P fixed	0.745	0.655	0.306	0.383	0.962	1.57	1.55	1.15	1.52	1.45
Q fixed	0.823	0.933	0.505	1.02	0.56	0.829	1.1	0.917	1.01	0.996
R fixed	1.38	0.825	0.49	0.88	0.861	0.656	2.03	1.96	1.89	1.67
S fixed	1.04	1.14	0.464	0.701	0.586	0.989	1.21	0.968	0.876	1.02
T fixed	1.54	1.18	0.991	0.855	0.688	1.11	1.03	0.906	0.858	0.905
V fixed	2.79	1.32	1.95	1.02	1.76	0.839	0.372	0.553	0.651	0.73
W fixed	0.511	1.24	1.58	1.76	1.24	0.438	0.383	1.1	0.679	0.754
pThr fixed	0.698	1.61	0.5	1.87	0.616	0.706	0.487	0.467	0.612	0.696
pTyr fixed	0.68	2.07	0.439	2.16	0.38	0.474	0.473	0.614	0.613	0.75

EPHA1, construct: aa568-end, human (from UniProt P21709)
relative phosphorylation
Details	at +1	at +2	at +3	at +4	at +5	at -1	at -2	at -3	at -4	at -5
A fixed	1.63	0.704	0.7	0.747	1.08	0.615	1.22	0.904	1.25	1.1
D fixed	0.645	0.963	0.21	0.562	0.699	0.705	0.891	1.06	0.864	0.752
E fixed	1.87	1.03	0.191	0.665	0.616	0.52	1.04	1.18	1.11	0.59
F fixed	0.853	1.68	1.4	1.27	1.17	1.37	0.531	1.16	0.936	1.1
G fixed	0.729	0.307	0.486	1.21	1.21	0.23	1.38	1.07	1.47	1.26
H fixed	0.604	0.912	0.877	1.38	0.987	0.87	1.03	1.18	0.919	0.917
I fixed	1.41	0.997	2.57	0.732	0.92	2.74	0.716	0.784	0.853	0.941
K fixed	0.292	0.642	0.319	0.931	1.12	0.381	1	0.801	0.993	1.12
L fixed	1.15	1.18	2.29	0.816	0.955	2.38	0.789	0.803	1	1.07
M fixed	1.88	1.21	1.5	1.26	0.966	1.11	0.633	0.926	0.948	0.968
N fixed	0.276	1.17	0.385	0.726	0.773	1	1.11	1.16	0.852	0.937
P fixed	0.157	0.521	1.26	1.19	1.57	0.445	1.29	0.929	1.13	1.17
Q fixed	1.11	0.792	0.679	0.86	0.807	0.433	1.05	0.77	0.95	0.914
R fixed	0.477	1.06	0.696	1.47	1.13	0.587	1.36	1.07	1.23	1.26
S fixed	0.799	0.697	0.488	0.739	1	0.391	1.46	1.03	0.868	0.86
T fixed	0.823	0.867	0.576	0.813	0.9	1.19	0.845	0.917	0.666	0.725
V fixed	1.93	0.974	2.03	0.73	0.853	1.43	0.821	0.78	0.827	0.913
W fixed	1.36	2.3	1.36	1.89	1.24	1.61	0.821	1.48	1.14	1.4
pThr fixed	0.981	1.05	0.17	0.4	0.508	1.39	0.685	0.721	0.608	0.558
pTyr fixed	1.87	2.54	0.57	0.629	0.727	0.904	0.81	0.888	0.88	0.684

EPHA2, construct: aa561-end, human (from UniProt P29317)
relative phosphorylation
Details	at +1	at +2	at +3	at +4	at +5	at -1	at -2	at -3	at -4	at -5
A fixed	1.31	0.627	0.592	0.785	0.992	0.392	1.11	0.791	1.04	0.971
D fixed	0.849	1.83	0.379	0.913	1.26	3.48	1.25	1.54	1.25	1.23
E fixed	2.74	2.13	0.34	1.28	1.22	2.02	1.74	1.76	1.41	1.03
F fixed	0.725	1.35	1.4	1.13	1.1	0.943	0.617	1.32	1.09	1.12
G fixed	0.517	0.298	0.508	1.15	1.15	0.198	1.22	0.847	1.26	1.15
H fixed	1.65	0.815	0.725	1.29	0.993	0.836	0.817	1.06	0.843	0.916
I fixed	1.84	1.08	3.27	0.777	0.778	1.92	0.914	0.914	0.999	1.04
K fixed	0.165	0.339	0.183	0.567	0.616	0.17	0.657	0.502	0.737	0.873
L fixed	0.892	0.944	1.84	0.662	0.877	1.83	0.82	0.873	1.05	1.05
M fixed	1.62	0.988	1.64	0.989	0.87	0.733	0.654	0.809	0.986	0.978
N fixed	0.322	1.07	0.395	0.718	0.8	1.83	1.3	1.07	0.802	1.06
P fixed	0.15	0.54	1.33	1.52	1.67	0.257	1.24	1.08	1.07	0.972
Q fixed	0.852	0.723	0.628	0.844	0.773	0.351	1.01	0.774	1.05	0.986
R fixed	0.18	0.481	0.262	0.692	0.613	0.219	0.832	0.607	0.871	0.92
S fixed	0.61	0.691	0.426	1.02	1.02	0.366	1.39	0.923	0.815	0.835
T fixed	0.783	0.816	0.621	0.886	1.22	0.931	1	0.903	0.79	0.827
V fixed	1.81	1.05	2.07	0.759	0.827	0.974	0.838	0.888	0.802	0.9
W fixed	0.979	2.23	1.4	2.02	1.21	0.554	0.61	1.34	1.12	1.15
pThr fixed	2.09	2.85	0.454	1.09	0.852	3.53	0.956	0.833	1.22	1.26
pTyr fixed	3.93	7.03	1.08	1.44	1.31	4.75	1.15	1.43	1.54	1.4

EPHA4, construct: aa610-887, human (from UniProt P54764)
relative phosphorylation
Details	at +1	at +2	at +3	at +4	at +5	at -1	at -2	at -3	at -4	at -5
A fixed	1.32	0.737	0.831	0.822	0.978	0.712	1.1	0.763	1.03	1.01
D fixed	1.31	2.05	0.748	1.15	1.18	2.37	1.27	1.2	1.28	1.11
E fixed	3.45	2.28	0.728	1.52	1.29	1.52	1.41	1.34	1.23	1.02
F fixed	0.73	1.14	1.22	0.976	1.25	0.885	0.778	1.24	1.16	1.08
G fixed	0.817	0.564	0.695	0.991	1.1	0.533	0.929	0.804	1.11	1.02
H fixed	0.631	0.779	0.833	1.07	0.933	0.672	0.865	0.873	0.867	0.959
I fixed	0.966	0.952	2.01	0.831	0.904	1.72	0.931	1.12	0.962	0.981
K fixed	0.473	0.527	0.525	0.679	0.67	0.513	0.825	0.594	0.836	0.965
L fixed	0.782	0.829	1.35	0.859	1.01	1.45	1.06	0.976	1.01	1.03
M fixed	1.06	0.86	1.13	0.923	0.938	0.802	0.777	0.851	0.902	1.01
N fixed	0.6	1.09	0.694	0.883	0.901	1.57	1.05	0.901	0.896	1
P fixed	0.509	0.757	1.5	1.25	1.44	0.641	1.42	0.94	1.12	1.05
Q fixed	1.02	0.797	0.708	0.909	0.82	0.638	1.07	0.753	1.04	0.95
R fixed	0.505	0.624	0.588	0.764	0.727	0.555	0.849	0.649	0.834	0.98
S fixed	0.757	0.756	0.685	0.897	0.945	0.689	1.1	0.851	0.919	0.921
T fixed	0.74	0.785	0.733	0.881	0.922	0.935	0.834	1.87	0.815	0.854
V fixed	1.38	0.997	1.59	0.84	0.879	1.08	0.95	0.959	0.861	0.918
W fixed	0.948	1.48	1.45	1.76	1.12	0.718	0.79	1.31	1.13	1.14
pThr fixed	1.73	2.97	0.917	1.23	1.13	2.06	1.1	0.813	0.997	0.912
pTyr fixed	1.87	8.24	1.28	1.75	1.33	2.22	1.09	1.01	1.09	1.07

From the supplement of paper PMC11136658
